In article PMC8761896:

Assays:
BG505-SOSIP = BG505-SOSIP (UniProt Q2N0S6)
VRC01gl Fab with G107aL = experiment: dynamic light scattering
[1] = molecular target: VRC01gl Fab with comL ('VQ' insertion at 103aL and 103bL, L104VL, E105DL); experiment: dynamic light scattering

Row | Substance | Kd (BG505-SOSIP) | koff (BG505-SOSIP) | kon (BG505-SOSIP) | stoichiometry N (VRC01gl Fab with G107aL) | stoichiometry N [1]
1 | 3BNC131 Fab H:Q39L | 21.2 nM | 0.00095 s⁻¹ | 44800 M⁻¹ s⁻¹ |  | 
2 | N6 Fab L:H38Q | 0.0781 nM | 6.04e-06 s⁻¹ | 76800 M⁻¹ s⁻¹ |  | 
3 | VRC01gl Fab with G107aL |  |  |  | 2 | 
4 | VRC01gl Fab with comL ('VQ' insertion at 103aL and 103bL, L104VL, E105DL) |  |  |  |  | 4
